Measurements taken from the supplement of paper PMC9233669.
Fewer inactive variants are shown than the library holds.

Tests used:
[1] = system: biotinyl-Ile-oxazolone; experiment: self-aminoacylation, catalytic enhancement (BIO) (fold over background); higher = more active; k-Seq, kA / k0A0; sequences stand for … in GGGAAUGGAUCCACAUCUACGAAUUC…UUCACUGCAGACUUGACGAAGCUG
How it was run: (§1)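 Mutagenized RNA pools (0.43 μM; 21-nt variable region) were treated with 2–1250 μM of each biotinyl-aminoacyl-oxazolone. Conditions were 50 μL HEPES/NaCl/KCl/MgCl2/CaCl2 buffer, 5% acetonitrile, pH 6.9–7.0, room temperature, 90 minutes. Catalytic enhancement, the median kA relative to the uncatalyzed rate, was derived from streptavidin capture, qPCR and Illumina sequencing.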

[2] = system: biotinyl-Val-oxazolone; experiment: self-aminoacylation, catalytic enhancement (BVO) (fold over background); higher = more active; k-Seq, kA / k0A0; sequences stand for … in GGGAAUGGAUCCACAUCUACGAAUUC…UUCACUGCAGACUUGACGAAGCUG
How it was run: as §1

[3] = system: biotinyl-Leu-oxazolone; experiment: self-aminoacylation, catalytic enhancement (BLO) (fold over background); higher = more active; k-Seq, kA / k0A0; sequences stand for … in GGGAAUGGAUCCACAUCUACGAAUUC…UUCACUGCAGACUUGACGAAGCUG
How it was run: as §1

[4] = system: biotinyl-Phe-oxazolone; experiment: self-aminoacylation, catalytic enhancement (BFO) (fold over background); higher = more active; k-Seq, kA / k0A0; sequences stand for … in GGGAAUGGAUCCACAUCUACGAAUUC…UUCACUGCAGACUUGACGAAGCUG
How it was run: as §1

[5] = system: biotinyl-Trp-oxazolone; experiment: self-aminoacylation, catalytic enhancement (BWO) (fold over background); higher = more active; k-Seq, kA / k0A0; sequences stand for … in GGGAAUGGAUCCACAUCUACGAAUUC…UUCACUGCAGACUUGACGAAGCUG
How it was run: as §1

[6] = system: biotinyl-Met-oxazolone; experiment: self-aminoacylation, catalytic enhancement (BMO) (fold over background); higher = more active; k-Seq, kA / k0A0; sequences stand for … in GGGAAUGGAUCCACAUCUACGAAUUC…UUCACUGCAGACUUGACGAAGCUG
How it was run: as §1

Sequence | self-aminoacylation [1] | self-aminoacylation [2] | self-aminoacylation [3] | self-aminoacylation [4] | self-aminoacylation [5] | self-aminoacylation [6]
AUUACGCUGGUCAUCGAGAGA [Fam2.1 aminoacylation ribozyme variant] | 1.21 | 1.73 | 1.42 | 1.36 | 1.59 | 1.44
AUUACGCUGGUCAUCGAGUGA [Fam2.1 aminoacylation ribozyme variant] | 3.16 | 3.23 | 4.69 | 16.1 | 5.76 | 4.57
AUUACGCUGGUCAUCGUGUGA [Fam2.1 aminoacylation ribozyme variant] | 1.62 | 1.6 | 2.59 | 15.4 | 3 | 2.48
AUUACGCUGGUCAUGGAGUGA [Fam2.1 aminoacylation ribozyme variant] | 2.29 | 2.39 | 2.76 | 5.28 | 3.44 | 2.67
AUUACGCUGGUCAUUGAGUGA [Fam2.1 aminoacylation ribozyme variant] | 3.29 | 3 | 5.87 | 21.2 | 6.92 | 5.32
AUUACGCUGGUCCUCGAGUGA [Fam2.1 aminoacylation ribozyme variant] | 4.15 | 4.14 | 6.05 | 44.8 | 6.54 | 6.22
AUUACGCUGGUCUUCGAGUGA [Fam2.1 aminoacylation ribozyme variant] | 3.35 | 3.32 | 5.46 | 12.9 | 5.95 | 4.27
AUUACGCUGGUGAUCGAGUGA [Fam2.1 aminoacylation ribozyme variant] | 2.89 | 2.59 | 5.37 | 25.3 | 5.45 | 4.44
AUUACGGUGGUCAUCGAGUGA [Fam2.1 aminoacylation ribozyme variant] | 2.44 | 2.09 | 2.56 | 5.75 | 3.24 | 2.68
AUUACUAUGGUCAUCGAGUGA [Fam2.1 aminoacylation ribozyme variant] | 3.32 | 3.31 | 6.66 | 22.6 | 8.33 | 6.37
AUUACUCGGGUCAUCGAGUGA [Fam2.1 aminoacylation ribozyme variant] | 3.66 | 3.33 | 8.09 | 28.6 | 6.64 | 6.51
AUUACUCUCGUCAUCGAGUGA [Fam2.1 aminoacylation ribozyme variant] | 2.11 | 2.09 | 3.39 | 8.87 | 4.11 | 2.92
AUUACUCUGGUCAUCGAAUGA [Fam2.1 aminoacylation ribozyme variant] | 1.19 | 1.09 | 1.3 | 0.918 | 0.832 | 1.45
AUUACUCUGGUCAUCGAGUGC [Fam2.1 aminoacylation ribozyme variant] | 1.1 | 1.05 | 1.42 | 0.969 | 1.32 | 1.19
AUUACUCUGGUCAUCGCGUGA [Fam2.1 aminoacylation ribozyme variant] | 8.13 | 8.12 | 17.7 | 117 | 18.3 | 16.4
AUUACUCUGGUUAUCGAGUGA [Fam2.1 aminoacylation ribozyme variant] | 4.17 | 4.2 | 8.76 | 51.3 | 10.5 | 8.17
AUUAGCAUGGUCAUCGAGUGA [Fam2.1 aminoacylation ribozyme variant] | 2.87 | 2.64 | 3.39 | 3.31 | 3.81 | 3.11
AUUAGCCCGGUCAUCGAGUGA [Fam2.1 aminoacylation ribozyme variant] | 3.45 | 3.57 | 6.64 | 55.9 | 7.74 | 6.23
AUUAGCCUAGGUCAUCGGGUG [Fam2.2 aminoacylation ribozyme variant] | 19 | 15.8 | 41.9 | 219 | 23.3 | 30.9
AUUAGCCUGGUAAUCGAGUGA [Fam2.1 aminoacylation ribozyme variant] | 5.28 | 5.07 | 13.3 | 75.9 | 12.8 | 11.6
AUUAGCCUGGUCAACGAGUGA [Fam2.1 aminoacylation ribozyme variant] | 3.71 | 3.45 | 5.61 | 18.2 | 6.82 | 5.21
AUUAGCCUGGUCACCGAGUGA [Fam2.1 aminoacylation ribozyme variant] | 4.14 | 4.65 | 11.5 | 58.3 | 11.4 | 8.98
AUUAGCCUGGUCAUCCAGUGA [Fam2.1 aminoacylation ribozyme variant] | 2.69 | 2.62 | 4.36 | 10.8 | 5.21 | 4.07
